Results on one protein are retold here after ChEMBL document CHEMBL1130869, “Peptide-based inhibitors of the hepatitis C virus serine protease” (Bioorg Med Chem Lett, 1998).

Substrate in the series: CC[C@H](C)[C@H](NC(=O)[C@H](CC(=O)O)NC(=O)[C@@H](N)CC(=O)O)C(=O)N[C@H](C(=O)N1CCC[C@H]1C(=O)N[C@@H](CS)C(=O)O)C(C)C
Description: Km against NS3-4Apep protease determined by non-linear regression analysis of the velocity data. The series is classed as protein-complex assay. The following applies: Hepacivirus hominis.

B1: Hepatitis C virus serine protease, NS3/NS4A (Hepatitis C virus), D2K2A8+A3EZI9 (protein)
chain 1: STWVLLGGVLAALAAYCLSVGCVVIVGYIELGGKPALVPDKEVCYQQYDEMEEC
chain 2: APITAYAQQTRGLLGCIITSLTGRDKNQVEGEVQIVSTAAQTFLATCINGVCWTVYHGAGTRTIASSKGPVIQMYTNVDQDLVGWPAPQGARSLTPCTCGSSDLYLVTRHADVIPVRRRGDGRGSLLSPRPISYLKGSSGGPLLCPAGHAVGIFRAAVCTRGVAKAVDFIPVEGLETTMRSPVFSDNSSPPAVPQSYQVAHLHAPTGSGKSTKVPAAYAAQGYKVLVLNPSVAATLGFGAYMSKAHGIDPNIRTGVRTITTGSPITYSTYGKFLADGGCSGGAYDIIICDECHSTDATSILGIGTVLDQAETAGARLTVLATATPPGSVTVPHPNIEEVALSTTGEIPFYGKAIPLEAIKGGRHLIFCHSKKKCDELAAKLVALGVNAVAYYRGLDVSVIPASGDVVVVATDALMTGFTGDFDSVIDCNTCVTQTVDFSLDPTFTIETTTLPQDAVSRTQRRGRTGRGKPGIYRFVTPGERPSGMFDSSVLCECYDAGCAWYELTPAETTVRLRAYMNTPGLPVCQDHLEFWEGVFTGLTHIDAHFLSQTKQSGENLPYLVAYQATVCARAQAPPPSWDQMWKCLIRLKPTLHGPTPLLYRLGAVQNEITLTHPITKYIMTCMSADLEVVT
As usually defined, the Km is the concentration of substrate that gives half-maximal velocity. As to B1, the Michaelis constant (Km) was determined as 37 µM.
